In patent US11833164B2, “Methods of treating Fabry disease in patients having a mutation in the GLA gene” (Amicus Therapeutics, Inc., priority 2019, dated 2023):

Tested on: mutant form of α-Gal A expressed in HEK-293 cells
Test: HEK assay (GLP HEK / Migalastat Amenability Assay): α-Gal A activity in lysates of transiently transfected HEK-293 cells incubated with or without 10 μM migalastat
Type: cell-based, human
Conditions: for Absolute increase (% WT) / Relative increase: 10 μM migalastat versus baseline; for Baseline α-Gal A activity (% WT): absence of migalastat; for Baseline α-Gal A activity (% WT) / 10 μM migalastat α-Gal A activity (% WT): percentage of baseline wild-type α-Gal A activity; for Baseline α-Gal A activity (% WT) / Baseline α-Gal A activity / 10 μM migalastat α-Gal A activity / 10 μM migalastat α-Gal A activity (% WT): mean ± SEM; for Baseline α-Gal A activity / 10 μM migalastat α-Gal A activity: lysates of HEK-293 cells transiently transfected with the mutant form; for Baseline α-Gal A activity: incubated 5 days in absence of migalastat; for 10 μM migalastat α-Gal A activity: incubated 5 days with 10 μM migalastat; for 10 μM migalastat α-Gal A activity (% WT): with 10 μM migalastat, 5 days
In short: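 HEK-293 cells transiently transfected with mutant α-Gal A and incubated with or without 10 μM migalastat; lysate activity given as nmol free 4-MU released per mg protein per hour. Values are mean±SEM.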

B1: Q333E (protein)
chain: MQLRNPELHLGCALALRFLALVSWDIPGARALDNGLARTPTMGWLHWERFMCNLDCQEEPDSCISEKLFMEMAELMVSEGWKDAGYEYLCIDDCWMAPQRDSEGRLQADPQRFPHGIRQLANYVHSKGLKLGIYADVGNKTCAGFPGSFGYYDIDAQTFADWGVDLLKFDGCYCDSLENLADGYKHMSLALNRTGRSIVYSCEWPLYMWPFQKPNYTEIRQYCNHWRNFADIDDSWKSIKSILDWTSFNQERIVDVAGPGGWNDPDMLVIGNFGLSWNQQVTQMALWAIMAAPLFMSNDLRHISPQAKALLQDKDVIAINQDPLGKQGYQLREGDNFEVWERPLSGLAWAVAMINRQEIGGPRSYTIAVASLGKGVACNPACFITQLLPVKRKLGFYEWTSRLRSHINPTGTVLLQLENTMQMSLKDLL
Absolute increase (% WT): 23.5 % WT
Relative increase: 1.3
Baseline α-Gal A activity (% WT): 77.8 ± 5.3 % WT
Baseline α-Gal A activity: 30291 ± 2094 nmol/mg/h
10 μM migalastat α-Gal A activity: 38709 ± 2428 nmol/mg/h
10 μM migalastat α-Gal A activity (% WT): 101.3 ± 7.6 % WT

B2: D335V (protein)
chain: MQLRNPELHLGCALALRFLALVSWDIPGARALDNGLARTPTMGWLHWERFMCNLDCQEEPDSCISEKLFMEMAELMVSEGWKDAGYEYLCIDDCWMAPQRDSEGRLQADPQRFPHGIRQLANYVHSKGLKLGIYADVGNKTCAGFPGSFGYYDIDAQTFADWGVDLLKFDGCYCDSLENLADGYKHMSLALNRTGRSIVYSCEWPLYMWPFQKPNYTEIRQYCNHWRNFADIDDSWKSIKSILDWTSFNQERIVDVAGPGGWNDPDMLVIGNFGLSWNQQVTQMALWAIMAAPLFMSNDLRHISPQAKALLQDKDVIAINQDPLGKQGYQLRQGVNFEVWERPLSGLAWAVAMINRQEIGGPRSYTIAVASLGKGVACNPACFITQLLPVKRKLGFYEWTSRLRSHINPTGTVLLQLENTMQMSLKDLL
Absolute increase (% WT): 19.4 % WT
Relative increase: 2.1
Baseline α-Gal A activity (% WT): 18.1 ± 0.6 % WT
Baseline α-Gal A activity: 7938 ± 336 nmol/mg/h
10 μM migalastat α-Gal A activity: 16557 ± 929 nmol/mg/h
10 μM migalastat α-Gal A activity (% WT): 37.5 ± 1.6 % WT

B3: D335A (protein)
chain: MQLRNPELHLGCALALRFLALVSWDIPGARALDNGLARTPTMGWLHWERFMCNLDCQEEPDSCISEKLFMEMAELMVSEGWKDAGYEYLCIDDCWMAPQRDSEGRLQADPQRFPHGIRQLANYVHSKGLKLGIYADVGNKTCAGFPGSFGYYDIDAQTFADWGVDLLKFDGCYCDSLENLADGYKHMSLALNRTGRSIVYSCEWPLYMWPFQKPNYTEIRQYCNHWRNFADIDDSWKSIKSILDWTSFNQERIVDVAGPGGWNDPDMLVIGNFGLSWNQQVTQMALWAIMAAPLFMSNDLRHISPQAKALLQDKDVIAINQDPLGKQGYQLRQGANFEVWERPLSGLAWAVAMINRQEIGGPRSYTIAVASLGKGVACNPACFITQLLPVKRKLGFYEWTSRLRSHINPTGTVLLQLENTMQMSLKDLL
Absolute increase (% WT): 27.7 % WT
Relative increase: 1.6
Baseline α-Gal A activity (% WT): 57.9 ± 3 % WT
Baseline α-Gal A activity: 21055 ± 1662 nmol/mg/h
10 μM migalastat α-Gal A activity: 33829 ± 4641 nmol/mg/h
10 μM migalastat α-Gal A activity (% WT): 85.6 ± 6.9 % WT

B4: G334V (protein)
chain: MQLRNPELHLGCALALRFLALVSWDIPGARALDNGLARTPTMGWLHWERFMCNLDCQEEPDSCISEKLFMEMAELMVSEGWKDAGYEYLCIDDCWMAPQRDSEGRLQADPQRFPHGIRQLANYVHSKGLKLGIYADVGNKTCAGFPGSFGYYDIDAQTFADWGVDLLKFDGCYCDSLENLADGYKHMSLALNRTGRSIVYSCEWPLYMWPFQKPNYTEIRQYCNHWRNFADIDDSWKSIKSILDWTSFNQERIVDVAGPGGWNDPDMLVIGNFGLSWNQQVTQMALWAIMAAPLFMSNDLRHISPQAKALLQDKDVIAINQDPLGKQGYQLRQVDNFEVWERPLSGLAWAVAMINRQEIGGPRSYTIAVASLGKGVACNPACFITQLLPVKRKLGFYEWTSRLRSHINPTGTVLLQLENTMQMSLKDLL
Absolute increase (% WT): 13.7 % WT
Relative increase: 1.2
Baseline α-Gal A activity (% WT): 68.4 ± 3.2 % WT
Baseline α-Gal A activity: 31991 ± 2390 nmol/mg/h
10 μM migalastat α-Gal A activity: 38301 ± 2744 nmol/mg/h
10 μM migalastat α-Gal A activity (% WT): 82.1 ± 3.8 % WT

B5: D335G (protein)
chain: MQLRNPELHLGCALALRFLALVSWDIPGARALDNGLARTPTMGWLHWERFMCNLDCQEEPDSCISEKLFMEMAELMVSEGWKDAGYEYLCIDDCWMAPQRDSEGRLQADPQRFPHGIRQLANYVHSKGLKLGIYADVGNKTCAGFPGSFGYYDIDAQTFADWGVDLLKFDGCYCDSLENLADGYKHMSLALNRTGRSIVYSCEWPLYMWPFQKPNYTEIRQYCNHWRNFADIDDSWKSIKSILDWTSFNQERIVDVAGPGGWNDPDMLVIGNFGLSWNQQVTQMALWAIMAAPLFMSNDLRHISPQAKALLQDKDVIAINQDPLGKQGYQLRQGGNFEVWERPLSGLAWAVAMINRQEIGGPRSYTIAVASLGKGVACNPACFITQLLPVKRKLGFYEWTSRLRSHINPTGTVLLQLENTMQMSLKDLL
Absolute increase (% WT): 15.7 % WT
Relative increase: 1.3
Baseline α-Gal A activity (% WT): 51.3 ± 2.8 % WT
Baseline α-Gal A activity: 22766 ± 1355 nmol/mg/h
10 μM migalastat α-Gal A activity: 30341 ± 3325 nmol/mg/h
10 μM migalastat α-Gal A activity (% WT): 67 ± 5.6 % WT

B6: D335E (protein)
chain: MQLRNPELHLGCALALRFLALVSWDIPGARALDNGLARTPTMGWLHWERFMCNLDCQEEPDSCISEKLFMEMAELMVSEGWKDAGYEYLCIDDCWMAPQRDSEGRLQADPQRFPHGIRQLANYVHSKGLKLGIYADVGNKTCAGFPGSFGYYDIDAQTFADWGVDLLKFDGCYCDSLENLADGYKHMSLALNRTGRSIVYSCEWPLYMWPFQKPNYTEIRQYCNHWRNFADIDDSWKSIKSILDWTSFNQERIVDVAGPGGWNDPDMLVIGNFGLSWNQQVTQMALWAIMAAPLFMSNDLRHISPQAKALLQDKDVIAINQDPLGKQGYQLRQGENFEVWERPLSGLAWAVAMINRQEIGGPRSYTIAVASLGKGVACNPACFITQLLPVKRKLGFYEWTSRLRSHINPTGTVLLQLENTMQMSLKDLL
Absolute increase (% WT): 17.7 % WT
Relative increase: 1.3
Baseline α-Gal A activity (% WT): 68.7 ± 4.8 % WT
Baseline α-Gal A activity: 30532 ± 1962 nmol/mg/h
10 μM migalastat α-Gal A activity: 39124 ± 2722 nmol/mg/h
10 μM migalastat α-Gal A activity (% WT): 86.5 ± 4.5 % WT

B7: Q333P (protein)
chain: MQLRNPELHLGCALALRFLALVSWDIPGARALDNGLARTPTMGWLHWERFMCNLDCQEEPDSCISEKLFMEMAELMVSEGWKDAGYEYLCIDDCWMAPQRDSEGRLQADPQRFPHGIRQLANYVHSKGLKLGIYADVGNKTCAGFPGSFGYYDIDAQTFADWGVDLLKFDGCYCDSLENLADGYKHMSLALNRTGRSIVYSCEWPLYMWPFQKPNYTEIRQYCNHWRNFADIDDSWKSIKSILDWTSFNQERIVDVAGPGGWNDPDMLVIGNFGLSWNQQVTQMALWAIMAAPLFMSNDLRHISPQAKALLQDKDVIAINQDPLGKQGYQLRPGDNFEVWERPLSGLAWAVAMINRQEIGGPRSYTIAVASLGKGVACNPACFITQLLPVKRKLGFYEWTSRLRSHINPTGTVLLQLENTMQMSLKDLL
Absolute increase (% WT): 31.0 % WT
Relative increase: 1.9
Baseline α-Gal A activity (% WT): 30.3 ± 1.7 % WT
Baseline α-Gal A activity: 11819 ± 1039 nmol/mg/h
10 μM migalastat α-Gal A activity: 22746 ± 1255 nmol/mg/h
10 μM migalastat α-Gal A activity (% WT): 61.3 ± 3.9 % WT

B8: G334R (protein)
chain: MQLRNPELHLGCALALRFLALVSWDIPGARALDNGLARTPTMGWLHWERFMCNLDCQEEPDSCISEKLFMEMAELMVSEGWKDAGYEYLCIDDCWMAPQRDSEGRLQADPQRFPHGIRQLANYVHSKGLKLGIYADVGNKTCAGFPGSFGYYDIDAQTFADWGVDLLKFDGCYCDSLENLADGYKHMSLALNRTGRSIVYSCEWPLYMWPFQKPNYTEIRQYCNHWRNFADIDDSWKSIKSILDWTSFNQERIVDVAGPGGWNDPDMLVIGNFGLSWNQQVTQMALWAIMAAPLFMSNDLRHISPQAKALLQDKDVIAINQDPLGKQGYQLRQRDNFEVWERPLSGLAWAVAMINRQEIGGPRSYTIAVASLGKGVACNPACFITQLLPVKRKLGFYEWTSRLRSHINPTGTVLLQLENTMQMSLKDLL
Absolute increase (% WT): 17.5 % WT
Relative increase: 1.2
Baseline α-Gal A activity (% WT): 58.9 ± 4.6 % WT
Baseline α-Gal A activity: 25886 ± 3237 nmol/mg/h
10 μM migalastat α-Gal A activity: 31174 ± 2016 nmol/mg/h
10 μM migalastat α-Gal A activity (% WT): 76.4 ± 2.7 % WT

B9: Q333L (protein)
chain: MQLRNPELHLGCALALRFLALVSWDIPGARALDNGLARTPTMGWLHWERFMCNLDCQEEPDSCISEKLFMEMAELMVSEGWKDAGYEYLCIDDCWMAPQRDSEGRLQADPQRFPHGIRQLANYVHSKGLKLGIYADVGNKTCAGFPGSFGYYDIDAQTFADWGVDLLKFDGCYCDSLENLADGYKHMSLALNRTGRSIVYSCEWPLYMWPFQKPNYTEIRQYCNHWRNFADIDDSWKSIKSILDWTSFNQERIVDVAGPGGWNDPDMLVIGNFGLSWNQQVTQMALWAIMAAPLFMSNDLRHISPQAKALLQDKDVIAINQDPLGKQGYQLRLGDNFEVWERPLSGLAWAVAMINRQEIGGPRSYTIAVASLGKGVACNPACFITQLLPVKRKLGFYEWTSRLRSHINPTGTVLLQLENTMQMSLKDLL
Absolute increase (% WT): 24.7 % WT
Relative increase: 1.3
Baseline α-Gal A activity (% WT): 68.6 ± 2.9 % WT
Baseline α-Gal A activity: 25450 ± 2094 nmol/mg/h
10 μM migalastat α-Gal A activity: 33727 ± 1965 nmol/mg/h
10 μM migalastat α-Gal A activity (% WT): 93.3 ± 4.1 % WT
